In patent publication US20040048377A1 (published 2004):

B1: mouse Grg4 (other, UniProt Q62441 1-773, looked up)
chain: MIRDLSKMYPQTRHPAPHQPAQPFKFTISESCDRIKEEFQFLQAQYHSLKLECEKLASEKTEMQRHYVMYYEMSYGLNIEMHKQAEIVKRLNAICAQVIPFLSQEHQQQVVQAVERAKQVTMAELNAIIGQQLQAQHLSHGHGLPVPLTPHPSGLQPPAIPPIGSSAGLLALSSALGGQSHLPIKDEKKHHDNDHQRDRDSIKSSSVSPSASFRGSEKHRNSTDYSSESKKQKTEEKEIAARYDSDGEKSDDNLVVDVSNEDPSSPRGSPAHSPRENGLDKTRLLKKDAPISPASVASSSSTPSSKSKELSLNEKSTTPVSKSNTPTPRTDAPTPGSNSTPGLRPVPGKPPGVDPLASSLRTPMAVPCPYPTPFGIVPHAGMNGELTSPGAAYAGLHNISPQMSAAAAAAAAAAAYGRSPVVGFDPHHHMRVPAIPPNLTGIPGGKPAYSFHVSADGQMQPVPFPPDALIGPGIPRHARQINTLNHGEVVCAVTISNPTRHVYTGGKGCVKVWDISHPGNKSPVSQLDCLNRDNYIRSCRLLPDGRTLIVGGEASTLSIWDLAAPTPRIKAELTSSAPACYALAISPDSKVCFSCCSDGNIAVWDLHNQTLVRQFQGHTDGASCIDISNDGTKLWTGGLDNTVRSWDLREGRQLQQHDFTSQIFSLGYCPTGEWLAVGMENSNVEVLHVTKPDKYQLHLHESCVLSLKFAHCGKWFVSTGKDNLLNAWRTPYGASIFQSKESSSVLSCDISVDDKYIVTGSGDKKATVYEVIY
notes: 35S-labelled, made in TNT rabbit reticulocyte lysate for the immuno-precipitation; expressed from a vector in COS-7 cells in the reporter assays; also called mGrg4

What was measured:
[1] = target: T1, Nkx2.2ΔTN (Nkx2.2 with the TN domain deleted, Δaa 2-26) (chick); experiment: immuno-precipitation, 35S-labelled Grg4, Nkx protein on antibody-proteinA-sepharose
T1 construct: range 1-1;range 27-C-terminus; Deletion construct, immobilised on antibody-proteinA-sepharose in the immuno-precipitation; also called cNkx2.2^?TN; NKx2.2^?TN
Description: (§1) Immuno-precipitation (IP) assays using rabbit Nkx2.2 (Ericson et al., 1997) and Nkx6.1 antibodies (Jensen et al., 1996) were performed as described by Current protocols 2nd ed. ³⁵S-labelled mGrg4 was synthesized using the TNT coupled rabbit reticulocyte lysate. Electric mobility shift assays were performed as described (Jorgensen et al., 1999). Briefly, the isolated homeodomains of Nkx6.1, Nkx6.2, Nkx2.2 and Nkx2.9HD were synthesized using the TNT coupled rabbit reticulocyte lysate and tested for their binding specificity in vitro using ³²P-labelled double stranded DNA oligonucleotides containing defined Nkx6.1 (Jorgensen et al., 1999) or Nkx2.1 binding sites (Damante et al., 1996).
(§2) An immuno-precipitation assay was then used to test if mammalian Gro/TLE family members could also bind to Nkx proteins, and if the TN domain is required for this interaction. […] Carboxy-terminal directed antibodies that recognise both full-length proteins as well as truncated variants lacking the TN domain were used (Ericson et al., 1997; Jensen et al., 1996). […]
(§3) Deletion of the TN domain in Nkx2.2 and Nkx6.1 reduced the interaction with Grg4 (9-fold for Nkx2.2ATN and 5-fold for Nkx6.1ΔTN, compared to the full-length proteins). […] No significant interaction was detected between Grg4 and antibody-proteinA-sepharose complexes.

[2] = target: B1; experiment: as above
Description: as §1, §2, §3

| Binder | fold reduction of the interaction with Grg4 compared to the full-length protein [1] [fold] | binding result [2] |
| --- | --- | --- |
| B1 | 9 |  |
| Nkx6.1 (full-length, rNkx6.1) (other, rat, UniProt O35762 1-365, looked up, mature; Full-length protein made in TNT rabbit reticulocyte lysate; 35S-labelled in the GST co-precipitation, immobilised on antibody-proteinA-sepharose in the immuno-precipitation) MLAVGAMEGPRQSAFLLSSPPLAALHSMAEMKTPLYPAAYPPLPTGPPSSSSSSSSSSSPSPPLGAHNPGGLKPPAAGGLSSLGSPPQQLSAATPHGINDILSRPSMPVASGAALPSASPSGSSSSSSSSASATSASAAAAAAAAAAAAAASSPAGLLAGLPRFSSLSPPPPPPGLYFSPSAAAVAAVGRYPKPLAELPGRTPIFWPGVMQSPPWRDARLACTPHQGSILLDKDGKRKHTRPTFSGQQIFALEKTFEQTKYLAGPERARLAYSLGMTESQVKVWFQNRRTKWRKKHAAEMATAKKKQDSETERLKGTSENEEDDDDYNKPLDPNSDDEKITQLLKKHKSSGGSLLLHASEAEGSS |  | binds |
